Biological target: Siglec-9, Siglec-10, and Siglec-14
Assay: BLI; Fc-fusions of the Siglec proteins immobilised on Protein A biosensors (ForteBio) at 5 µg/mL; PTGFRN extracellular domain in 2-fold serial dilutions starting at 100 µg/mL; equilibrium dissociation constants calculated with ForteBio Data Analysis software v. 10.0

B1: extracellular domain of PTGFRN (aa 26-832) with a C-terminal histidine tag (domain or fragment)
chain: VPTATLVRVVGTELVIPCNVSDYDGPSEQNFDWSFSSLGSSFVELASTWEVGFPAQLYQERLQRGEILLRRTANDAVELHIKNVQPSDQGHYKCSTPSTDATVQGNYEDTVQVKVLADSLHVGPSARPPPSLSLREGEPFELRCTAASASPLHTHLALLWEVHRGPARRSVLALTHEGRFHPGLGYEQRYHSGDVRLDTVGSDAYRLSVSRALSADQGSYRCIVSEWIAEQGNWQEIQEKAVEVATVVIQPSVLRAAVPKNVSVAEGKELDLTCNITTDRADDVRPEVTWSFSRMPDSTLPGSRVLARLDRDSLVHSSPHVALSHVDARSYHLLVRDVSKENSGYYYCHVSLWAPGHNRSWHKVAEAVSSPAGVGVTWLEPDYQVYLNASKVPGFADDPTELACRVVDTKSGEANVRFTVSWYYRMNRRSDNVVTSELLAVMDGDWTLKYGERSKQRAQDGDFIFSKEHTDTFNFRIQRTTEEDRGNYYCVVSAWTKQRNNSWVKSKDVFSKPVNIFWALEDSVLVVKARQPKPFFAAGNTFEMTCKVSSKNIKSPRYSVLIMAEKPVGDLSSPNETKYIISLDQDSVVKLENWTDASRVDGVVLEKVQEDEFRYRMYQTQVSDAGLYRCMVTAWSPVRGSLWREAATSLSNPIEIDFQTSGPIFNASVHSDTPSVIRGDLIKLFCIITVEGAALDPDDMAFDVSWFAVHSFGLDKAPVLLSSLDRKGIVTTSRRDWKSDLSLERVSVLEFLLQVHGSEDQDFGNYYCSVTPWVKSPTGSWQKEAEIHSKPVFITVKMDVLNAFKYP
Q: How did the Kd turn out when B1 was run?
A: 0.7 to 4 µM

From PMC8062530
